Measured values reported in the supplement of paper PMC7877785.
± gives the uncertainty stated by the source.

Assay: self-splicing fitness, log relative to wild type (ln ratio); higher = more splicing; Tetrahymena group I intron in knt gene, E. coli kanamycin selection, DiMSum; sequences stand for … in CUCUCU…GGAGGGAAAAGUUAUCAGGCAUGCACCUGGUAGCUAGUCUUUAAACCAAUAGAUUGCAUCGGUUUAAAAGGCAAGACCGUCAAAUUGCGGGAAAGGGGUCAACAGCCGUUCAGUACCAAGUCUCAGGGGAAACUUUGAGAUGGCCUUGCAAAGGGUAUGGUAAUAAGCUGACGGACAUGGUCCUAACCACGCAGCCAAGUCCUAAGUCAACAGAUCUUCUGUUGAUAUGGAUGCAGUUCACAGACUAAAUGUCGGUCGGGGAAGAUGUAUUCUUCUCAUAAGAUAUAGUCGGACCUCUCCUUAAUGGGAGCUAGCGGAUGAAGUGAUGCAACACUGGAGCCGCUGGGAACUAAUUUGUAUGCGAAAGUAUAUUGAUUAGUUUUGGAGUACUCGUGGUCG
Method in brief: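 Library with all eight P1ex-region intron nucleotides randomised, intron inside the knt kanamycin-resistance gene on pET-22b(+), in E. coli BL21(DE3). Cells grew overnight at 37°C or 30°C on LB agar with or without 25 μg/mL kanamycin (plus 100 μg/mL carbenicillin, 50 μM IPTG, 0.2% rhamnose), in six replicate transformations. Pooled colonies were amplicon-sequenced on Illumina HiSeq 2500. DiMSum fitness is the error-weighted combination of wild-type-normalised replicate fold changes, kanamycin versus none.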

| Sequence | self-splicing fitness (ln) (30 °C) | self-splicing fitness (ln) (37 °C) |
| --- | --- | --- |
| AGACAGCAAUAUUACGGUCC | -3.24 ± 0.27 | -1.68 ± 0.28 |
| CCUAAGCAAUAUUACGCCAC | -2.75 ± 0.22 |  |
| UCUAAGCAAUAUUACGUCUU | -4.03 ± 0.27 | -4.18 ± 0.46 |
| AUAUAGCAAUAUUACGCUGA | -1.3 ± 0.2 | -1.15 ± 0.24 |
| UUGGAGCAAUAUUACGUGAA | -2.62 ± 0.21 | -1.27 ± 0.2 |
| GAACAGCAAUAUUACGUAAU | -0.976 ± 0.065 | -0.107 ± 0.09 |
| AAAAAGCAAUAUUACGCUGU | -2.69 ± 0.13 | -1.69 ± 0.11 |
| CUGAAGCAAUAUUACGUCCG | 0.226 ± 0.083 | 0.658 ± 0.13 |
| UCACAGCAAUAUUACGCGAA | -1.74 ± 0.086 | -0.538 ± 0.091 |
| ACUUAGCAAUAUUACGUGAA | -2.94 ± 0.15 | -1.5 ± 0.12 |
| GUAUAGCAAUAUUACGCACU | -1.9 ± 0.16 | -0.384 ± 0.14 |
| AUGGAGCAAUAUUACGAAUU | -3.14 ± 0.47 | -1.14 ± 0.25 |
| AGCAAGCAAUAUUACGGUCC | -0.25 ± 0.07 | -0.276 ± 0.081 |
| UUCCAGCAAUAUUACGAUAG | -2.58 ± 0.18 | -1.4 ± 0.16 |
| CAUAAGCAAUAUUACGGCUA | -1.56 ± 0.13 | -1.51 ± 0.12 |
| ACCGAGCAAUAUUACGUACC | -3.88 ± 0.33 | -2.37 ± 0.44 |
| GACCAGCAAUAUUACGCCAG | -3.98 ± 0.28 | -0.652 ± 0.19 |
| GUGUAGCAAUAUUACGUAAA | -2.96 ± 0.21 | -0.326 ± 0.15 |
| UCUUAGCAAUAUUACGUUGG | -2.76 ± 0.18 | -2.65 ± 0.19 |
| UGUGAGCAAUAUUACGUAGA |  | -0.751 ± 0.44 |

| Sequence | self-splicing fitness (ln) (30 °C) | self-splicing fitness (ln) (37 °C) |
| --- | --- | --- |
| CCCCAGCAAUAUUACGAUAU | -3.52 ± 0.2 | -1.58 ± 0.21 |
| AACGAGCAAUAUUACGUCGA |  | -2.06 ± 0.21 |
| CCUAAGCAAUAUUACGCAGG | -4.8 ± 0.29 | -2.37 ± 0.25 |
| GUAGAGCAAUAUUACGGGCA | -1.69 ± 0.15 | -0.35 ± 0.21 |
| CAUAAGCAAUAUUACGGUCA | -2.41 ± 0.24 | -1.89 ± 0.2 |
| GCCCAGCAAUAUUACGUCGC | -1.66 ± 0.095 | -0.355 ± 0.092 |
| UGUCAGCAAUAUUACGUCCA | -0.159 ± 0.094 | -0.505 ± 0.12 |
| ACUAAGCAAUAUUACGGUGU | -3.49 ± 0.15 | -2.23 ± 0.12 |
| CUGCAGCAAUAUUACGGAAG | -1.56 ± 0.072 | -0.784 ± 0.095 |
| UCCAAGCAAUAUUACGCCAC |  | -1.13 ± 0.33 |
| CGCUAGCAAUAUUACGCUAG | -2.63 ± 0.22 | -2.16 ± 0.27 |
| GAGGAGCAAUAUUACGGUUG | -3.94 ± 0.23 | -2.17 ± 0.2 |
| ACAUAGCAAUAUUACGUCUU | -1.33 ± 0.077 | -0.302 ± 0.084 |
| UGCGAGCAAUAUUACGUUCA | -1.45 ± 0.11 | -0.32 ± 0.15 |
| GUUUAGCAAUAUUACGACUA | -0.518 ± 0.18 | 0.0789 ± 0.15 |
| GACCAGCAAUAUUACGGGAA | -0.695 ± 0.06 | -0.941 ± 0.067 |
| CGGAAGCAAUAUUACGAGCG | -1.14 ± 0.098 | -1.11 ± 0.095 |
| CCAAAGCAAUAUUACGCCAA | -2.73 ± 0.2 | -1.96 ± 0.23 |
| AACUAGCAAUAUUACGCUAA | -2.06 ± 0.11 | -1.51 ± 0.12 |
